According to US20170022273A1 (SORRENTO THERAPEUTICS, published 2017):

What was measured:
[1] = molecular target: T1, recombinant mouse LAG3/Fc (mouse, UniProt Q61790 24-442); assay: ELISA, plate coated with 2 ug/mL recombinant mouse LAG3/Fc, anti-human Lambda HRP detection
T1 construct: Coated on the ELISA plate at 2 ug/mL; not shown: Fc part of the LAG3/Fc fusion
T1 sequence (looked up): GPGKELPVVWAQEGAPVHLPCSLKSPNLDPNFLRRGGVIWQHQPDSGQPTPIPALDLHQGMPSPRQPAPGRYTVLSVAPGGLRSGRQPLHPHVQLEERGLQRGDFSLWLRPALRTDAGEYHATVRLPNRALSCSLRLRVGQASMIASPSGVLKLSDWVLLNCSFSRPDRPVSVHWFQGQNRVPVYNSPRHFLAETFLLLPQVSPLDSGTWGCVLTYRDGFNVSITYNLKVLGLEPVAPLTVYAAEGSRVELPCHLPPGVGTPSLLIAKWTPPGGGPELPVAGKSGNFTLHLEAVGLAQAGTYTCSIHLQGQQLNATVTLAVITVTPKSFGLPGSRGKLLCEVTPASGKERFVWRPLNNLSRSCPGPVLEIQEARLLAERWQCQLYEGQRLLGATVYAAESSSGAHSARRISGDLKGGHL
Procedure: (§1) An analysis of the cross-reactivity of various LAG3 antibodies to recombinant mouse LAG3 and human LAG3 was also performed. A Maxisorb ELISA plate was coated with 2 ug/mL recombinant human, and mouse LAG3/Fc (blank: PBS). Incubated overnight at 4° C. The plate was washed 3 times with PBS-Tween (PBST), then blocked with Casein blocking buffer for 1 hour at room temperature. Next, IgGs diluted in casein (about 5ug/ml) were added, and incubated 30 min with shaking. The plate was washed 3 times with PBST. Horseradish peroxidase (HRP)-conjugated goat anti-human Lambda HRP (1:1000 in casein) was added, then 3,3′,5,5′-Tetramethylbenzidine (TMB) was added as substrate and developed 30 min 2M H2SO4 was used to stop the reaction and the OD was read at 450 nm Anti-AIP antibody C7 was used as a control antibody.

[2] = molecular target: T2, recombinant human LAG3/Fc (human, UniProt P18627 23-450); assay: ELISA, plate coated with 2 ug/mL recombinant human LAG3/Fc, IgG about 5ug/ml
T2 construct: Coated on the ELISA plate at 2 ug/mL; not shown: Fc part of the LAG3/Fc fusion
T2 sequence (looked up): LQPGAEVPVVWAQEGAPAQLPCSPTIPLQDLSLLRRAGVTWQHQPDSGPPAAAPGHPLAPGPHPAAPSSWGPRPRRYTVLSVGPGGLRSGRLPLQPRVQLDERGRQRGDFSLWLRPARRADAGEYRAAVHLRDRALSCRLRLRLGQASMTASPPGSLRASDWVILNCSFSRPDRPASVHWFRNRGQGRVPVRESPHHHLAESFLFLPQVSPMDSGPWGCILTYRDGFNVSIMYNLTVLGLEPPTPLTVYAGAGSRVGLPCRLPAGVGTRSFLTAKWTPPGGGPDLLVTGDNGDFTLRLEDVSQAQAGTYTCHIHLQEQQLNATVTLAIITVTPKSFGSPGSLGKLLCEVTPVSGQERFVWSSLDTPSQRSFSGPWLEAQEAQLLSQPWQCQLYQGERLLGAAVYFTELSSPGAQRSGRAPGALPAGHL
Procedure: as §1

[3] = molecular target: T3, Recombinant human LAG3/His (human, UniProt P18627 23-450); assay: Biacore SPR, antibody captured on anti-human Fc CM5 chip, LAG3/His as analyte, 1:1 Langmuir fit
T3 construct: Analyte in the Biacore assay, serially diluted in HBS-EP; not shown: His tag
T3 sequence (looked up): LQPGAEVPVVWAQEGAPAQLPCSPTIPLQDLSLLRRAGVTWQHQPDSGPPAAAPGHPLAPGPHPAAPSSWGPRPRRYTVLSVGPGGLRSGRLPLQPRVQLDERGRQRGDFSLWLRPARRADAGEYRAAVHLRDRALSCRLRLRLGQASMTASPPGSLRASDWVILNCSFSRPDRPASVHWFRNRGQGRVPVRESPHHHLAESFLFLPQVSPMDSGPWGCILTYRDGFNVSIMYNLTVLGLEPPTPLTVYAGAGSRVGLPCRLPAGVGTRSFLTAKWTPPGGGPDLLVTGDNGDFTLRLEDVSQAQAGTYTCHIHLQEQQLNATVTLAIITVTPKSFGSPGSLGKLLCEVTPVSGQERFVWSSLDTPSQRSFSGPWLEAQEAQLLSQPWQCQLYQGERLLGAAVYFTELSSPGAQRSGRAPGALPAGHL
Procedure: The binding affinity of antibody L3C5 for human LAG3 was also tested using a BiaCore assay. […] Biacore was used to measure the affinity of LAG3 antibody L3C5. Anti-human Fc antibody (GE, BR-1008-39) was immobilized on CM5 sensor chip to approximately 5000 RU using standard NHS/EDC coupling methodology. Antibody (approximately 2 ug/ml) were captured for 60 s at a flow rate 10 uL/min. Recombinant human LAG3/His was serially diluted in running buffer (HBS-EP). All measurements were conducted with a flow rate of 30 μL/min Surfaces were regenerated with 3M MgCl2 (from human antibody kit) for 60 s. A 1:1 (Langmuir) binding model was used to fit the data.

B1: L35D4 (antibody, V domains shown)
VH: QVQLVQSGAEVKKPGASVKVSCKASGYTFTSYYMHWVRQAPGQGLEWMGIINPSAGSTSYAQKFQGRVTMTRDTSTSTVYMELSSLRSEDTAVYYCARELMATGGFDYWGQGTLVTVSS
VL: QSVLTQPPSASGSPGQSVTISCTGTSSDVGGYNYVSWYQQYPGKAPRLMIFEVTERASGVPDRFSGSKSGNTASLTVSGLQTEDEAVYFCSSYSGSNNPGAMFGGGTKLTVL
notes: Tested as a fully human IgG with a lambda light chain; also called anti-hLAG3 antibody L35D4
Question: Which results are given for B1?
Answer: binding result [1]: no binding (tested: about 5ug/ml); binding result [2]: binds

B2: L32A9 (antibody, V domains shown)
VH: QVQLVQSGAEVKKPGASVKVSCKASGYTFTSYYMHWVRQAPGQGLEWMGIINPSAGSTSYAQKFQGRVTMTRDTSTSTVYMELSSLRSEDTAVYYCARELMATGGFDYWGQGTLVTVSS
VL: QSVVTQPPSVSAAPGQKVTISCSGSSSNIGNNYVSWYQQLPGTAPKLLIYDNNKRHSGIPDRFSGSTSDTSATLGITRLQTGDEADYYCGTWDSSLSAYVFGTGTKVTVL
notes: Tested as a fully human IgG with a lambda light chain; also called anti-hLAG3 antibody L32A9
Question: Does B2 bind [1]?
Answer: no binding (tested: about 5ug/ml)

Question: Does B2 bind [2]?
Answer: binds

B3: L32A4 (antibody, V domains shown)
VH: QVQLVQSGAEVKKPGASVKVSCKASGYTFTSYYMHWVRQAPGQGLEWMGIINPSAGSTSYAQKFQGRVTMTRDTSTSTVYMELSSLRSEDTAVYYCARELMATGGFDYWGQGTLVTVSS
VL: QSVLTQPASVSGSPGQSITISCTGTSSDIGAYNFVSWYQQHPGKAPKLMIYGVSNRPSGVSSRFSGSKSGSTASLTISGLQAEDEADYYCSSYTTSGSAVFGTGTKLTVL
notes: Tested as a fully human IgG with a lambda light chain; also called anti-hLAG3 antibody L32A4
Question: Does B3 bind [1]?
Answer: no binding (tested: about 5ug/ml)

Question: Does B3 bind [2]?
Answer: binds

B4: L3C5 (antibody, V domains shown)
VH: QVQLVQSGSELKKPGASVKVSCKASGYTFTNYYMHWVRQAPGQGLEWMGIINPSGGATNYAQKFQGRVTMTRDTSTSTVYMELSSLRSEDTAVYYCARDSGYDLGYGMDVWGQGTLVTVSS
VL: QSVLTQPASVSGSPGQSITISCTGTSSDVGGYNYVSWYQQHPGKAPKLMIYDVSNRPSGASNRFSGSKSGNTASLTISGLQAEDEADYYCSSYTNRNTLLFGGGTKLTVL
notes: Captured on an anti-human Fc antibody chip in the Biacore assay, so a whole antibody with a human Fc; also called LAG3 antibody L3C5; 13
Question: Which Ka [3] does the source give for B4 here?
Answer: 6.6e+06 M⁻¹

Question: And the Kd [3]?
Answer: 152 nM

Question: And the koff [3]?
Answer: 0.0717 s⁻¹

Question: What about the kon [3] of the same binder?
Answer: 473000 M⁻¹ s⁻¹

B5: L33H11 (antibody, V domains shown)
VH: QVQLVQSGAEVKKPGASVKVSCKASGYTFTSYYMHWVRQAPGQGLEWMGIINPSAGSTSYAQKFQGRVTMTRDTSTSTVYMELSSLRSEDTAVYYCARELMATGGFDYWGQGTLVTVSS
VL: LPVLTQPASVSGSPGQSITISCTGTSSDVGGYNYVSWYQQHPGKAPKLMIYDVTNRPSGVSNRFSGSKSGNTASLTISGLQAEDEADYYCSSYTSSNTLLFGGGTQLTVL
notes: Tested as a fully human IgG with a lambda light chain; also called anti-hLAG3 antibody L33H11
Question: Does B5 bind [1]?
Answer: no binding (tested: about 5ug/ml)

Question: Does B5 bind [2]?
Answer: binds

B6: L35G6 (antibody, V domains shown)
VH: QVQLVQSGAEVKKPGASVKVSCKASGYTFTSYYMHWVRQAPGQGLEWMGIINPSAGSTSYAQKFQGRVTMTRDTSTSTVYMELSSLRSEDTAVYYCARELMATGGFDYWGQGTLVTVSS
VL: QAGLTQPASVSGSPGQSITISCTGSSSDVGGYSYVSWYQKHPGKAPKLMIYDVTNRPSGVSNRFSGSKSGNTASLTISGLQAEDEADYYCSTYTRSNTLVFGPGTKVTVL
notes: Tested as a fully human IgG with a lambda light chain (detected with anti-human Lambda HRP); also called anti-hLAG3 antibody L35G6
Question: Does B6 bind [1]?
Answer: no binding (tested: about 5ug/ml)

Question: Does B6 bind [2]?
Answer: binds

B7: L32D10 (antibody, V domains shown)
VH: QVQLVQSGAEVKKPGASVKVSCKASGYTFTSYYMHWVRQAPGQGLEWMGIINPSAGSTSYAQKFQGRVTMTRDTSTSTVYMELSSLRSEDTAVYYCARELMATGGFDYWGQGTLVTVSS
VL: QSVLTQPPSASGSPGQSVTISCTGTSSDVGGYDYVSWYQQHQGKAPKLMIYDVSNRPSGVSNRFSGSKSGNTASLTISGLQAEDEADYYCSSYTSSTTLVFGGGTKLTVL
notes: Tested as a fully human IgG with a lambda light chain; also called anti-hLAG3 antibody L32D10
Question: Does B7 bind [1]?
Answer: no binding (tested: about 5ug/ml)

Question: Does B7 bind [2]?
Answer: binds
